These results are taken from patent publication US20040002059A1 (Boehringer Ingelheim, published 2004).

For data set [1], the target named is N-terminally truncated HPV-11 E1 (E1*, amino acids 72-649) (human papilloma virus type 11 (HPV-11)) (UniProt P04014). Kind of data set: cell-based or functional assay.
Data set [2] concerns the molecule itself. Briefly: BMH cross-linking of in-vitro translated truncated proteins (FIG. 11).
Data set [3] concerns the target T1, HPV-11 E1 (330-649) fused to the GAL4 DNA-binding domain (BD) (human papilloma virus type 11 (HPV-11)).
T1 construct: also called larger E1 fragment (330-649)
Briefly: yeast two-hybrid, β-galactosidase activity (FIG. 1B).

Data set [4] deals with the molecule itself. Briefly: BMH cross-linking of 35S-labelled protein, immunoprecipitation, gel electrophoresis (FIG. 10).
Data set [5] concerns the molecule itself. Briefly: BMH cross-linking with ss DNA (FIG. 12B).

Substitutions are numbered along the chain they refer to. Numbers in names are those of the source.

In data set [1], “thioredoxin fusion protein TRX-E1 (353-431) (from UniProt P04014 353-431)” showed a 50% inhibitory concentration for inhibition of the binding of E1* (72-649) to the origin of 3 µM.

B1: truncated HPV-11 E1 (353-649) made by in-vitro translation (enzyme)
chain: DSQFKLTEMVQWAYDNDICEESEIAFEYAQRGDFDSNARAFLNSNMQAKYVKDCAIMCRHYKHAEMKKMSIKQWIKYRGTKVDSVGNWKPIVQFLRHQNIEFIPFLSKLKLWLHGTPKKNCIAIVGPPDTGKSCFCMSLIKFLGGTVISYVNSCSHFWLQPLTDAKVALLDDATQPCWTYMDTYMRNLLDGNPMSIDRKHRALTLIKCPPLLVTSNIDISKEEKYKYLHSRVTTFTFPNPFPFDRNGNAVYELSDANWKCFFERLSSSLDIEDSEDEEDGSNSQAFRCVPGSVVRTL
notes: also called residues 353-649 of E1
Consider B1, for which the binding result in data set [2] is recorded as “binds”.

B2: truncated HPV-11 E1 (330-649) made by in-vitro translation (enzyme)
chain: ASTVIGEAPEWITRQTVIEHSLADSQFKLTEMVQWAYDNDICEESEIAFEYAQRGDFDSNARAFLNSNMQAKYVKDCAIMCRHYKHAEMKKMSIKQWIKYRGTKVDSVGNWKPIVQFLRHQNIEFIPFLSKLKLWLHGTPKKNCIAIVGPPDTGKSCFCMSLIKFLGGTVISYVNSCSHFWLQPLTDAKVALLDDATQPCWTYMDTYMRNLLDGNPMSIDRKHRALTLIKCPPLLVTSNIDISKEEKYKYLHSRVTTFTFPNPFPFDRNGNAVYELSDANWKCFFERLSSSLDIEDSEDEEDGSNSQAFRCVPGSVVRTL
As to B2, the binding result in data set [2] was “binds”.

B3: C-terminal HPV-11 E1 fragment (amino acids 435-649) fused to the GAL4 activation domain (AD) (other)
chain: DSVGNWKPIVQFLRHQNIEFIPFLSKLKLWLHGTPKKNCIAIVGPPDTGKSCFCMSLIKFLGGTVISYVNSCSHFWLQPLTDAKVALLDDATQPCWTYMDTYMRNLLDGNPMSIDRKHRALTLIKCPPLLVTSNIDISKEEKYKYLHSRVTTFTFPNPFPFDRNGNAVYELSDANWKCFFERLSSSLDIEDSEDEEDGSNSQAFRCVPGSVVRTL
notes: also called E1 (435-649)
Turning to B3, the binding result in data set [3] is “no binding”.

B4: truncated HPV-11 E1 (191-649) made by in-vitro translation (enzyme)
chain: DTSGILELLKCKDIRSTLHGKFKDCFGLSFVDLIRPFKSDRTTCADWVVAGFGIHHSIADAFQKLIEPLSLYAHIQWLTNAWGMVLLVLIRFKVNKSRCTVARTLGTLLNIPENHMLIEPPKIQSGVAALYWFRTGISNASTVIGEAPEWITRQTVIEHSLADSQFKLTEMVQWAYDNDICEESEIAFEYAQRGDFDSNARAFLNSNMQAKYVKDCAIMCRHYKHAEMKKMSIKQWIKYRGTKVDSVGNWKPIVQFLRHQNIEFIPFLSKLKLWLHGTPKKNCIAIVGPPDTGKSCFCMSLIKFLGGTVISYVNSCSHFWLQPLTDAKVALLDDATQPCWTYMDTYMRNLLDGNPMSIDRKHRALTLIKCPPLLVTSNIDISKEEKYKYLHSRVTTFTFPNPFPFDRNGNAVYELSDANWKCFFERLSSSLDIEDSEDEEDGSNSQAFRCVPGSVVRTL
notes: also called E1 protein comprised of amino acids 191-649
Take B4: in data set [2], the binding result was “binds”.

B5: N-terminally truncated HPV-11 E1 (E1*, amino acids 72-649) (enzyme)
chain: ADAHYATVQDLKRKYLGSPYVSPISNVANAVESEISPRLDAIKLTTQPKKVKRRLFETRELTDSGYGYSEVEAATQVEKHGDPENGGDGEERDTGRDIEGEGVEHREAEAVDDSTREHADTSGILELLKCKDIRSTLHGKFKDCFGLSFVDLIRPFKSDRTTCADWVVAGFGIHHSIADAFQKLIEPLSLYAHIQWLTNAWGMVLLVLIRFKVNKSRCTVARTLGTLLNIPENHMLIEPPKIQSGVAALYWFRTGISNASTVIGEAPEWITRQTVIEHSLADSQFKLTEMVQWAYDNDICEESEIAFEYAQRGDFDSNARAFLNSNMQAKYVKDCAIMCRHYKHAEMKKMSIKQWIKYRGTKVDSVGNWKPIVQFLRHQNIEFIPFLSKLKLWLHGTPKKNCIAIVGPPDTGKSCFCMSLIKFLGGTVISYVNSCSHFWLQPLTDAKVALLDDATQPCWTYMDTYMRNLLDGNPMSIDRKHRALTLIKCPPLLVTSNIDISKEEKYKYLHSRVTTFTFPNPFPFDRNGNAVYELSDANWKCFFERLSSSLDIEDSEDEEDGSNSQAFRCVPGSVVRTL
notes: Made by coupled in vitro transcription/translation in rabbit reticulocyte lysate; 35S-labelled in the cross-linking assay; Forms up to hexamers; also called E1 (72-649); E1* (72-649)
Consider B5, for which the binding result in data set [4] is given as “binds”.

B6: E1* (72-649) F509A (enzyme)
chain: B5 chain with F438A
As to B6, the binding result in data set [5] was “binds”.
